Laboratory results as given in paper PMC8828050, “Covalent inhibition of endoplasmic reticulum chaperone GRP78 disconnects the transduction of ER stress signals to inflammation and lipid accumulation in diet-induced obese mice” (eLife, 2022).

Assays:
[1] = molecular target: T1, Recombinant 6xHis-tagged human GRP78 protein, biotinylated (human, UniProt P11021 19-654, biotin (EZ-Link Sulfo-NHS-Biotin)); experiment: SPR; biotinylated GRP78 captured on streptavidin Sensor Chip SA; peptide 2.5 nM to 320 μM flowed at 30 μl/min, 25°C; 10 mM HEPES, 150 mM NaCl, 3 mM EDTA, 0.005% Tween-20, pH 7.4; steady-state analysis, 1:1 model; Biacore X100; average of four runs; conditions: both partners purified
T1 construct: 78 kDa glucose-regulated protein (GRP78), human, recombinant from Abcam; Captured on the streptavidin chip through the biotin; No Abcam catalogue number is printed; also called 78 kDa glucose-regulated protein; biotinylated GRP78; source: bought: Abcam
T1 sequence (P11021 19-654): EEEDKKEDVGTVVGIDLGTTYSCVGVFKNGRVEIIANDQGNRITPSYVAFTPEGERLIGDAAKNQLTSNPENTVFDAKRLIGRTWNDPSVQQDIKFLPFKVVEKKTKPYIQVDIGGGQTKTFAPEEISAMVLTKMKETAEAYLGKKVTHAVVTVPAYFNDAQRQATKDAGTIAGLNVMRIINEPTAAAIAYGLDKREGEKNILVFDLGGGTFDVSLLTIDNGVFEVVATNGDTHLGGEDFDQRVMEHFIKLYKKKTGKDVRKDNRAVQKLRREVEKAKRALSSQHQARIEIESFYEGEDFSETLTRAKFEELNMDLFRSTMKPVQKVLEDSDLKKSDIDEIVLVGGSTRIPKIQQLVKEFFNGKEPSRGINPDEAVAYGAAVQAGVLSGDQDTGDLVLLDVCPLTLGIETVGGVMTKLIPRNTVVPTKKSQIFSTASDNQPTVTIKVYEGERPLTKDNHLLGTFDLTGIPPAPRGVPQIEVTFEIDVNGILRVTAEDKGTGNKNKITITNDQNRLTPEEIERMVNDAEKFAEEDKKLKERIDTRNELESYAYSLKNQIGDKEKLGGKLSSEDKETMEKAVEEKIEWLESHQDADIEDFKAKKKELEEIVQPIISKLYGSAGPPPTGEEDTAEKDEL

[2] = molecular target: T2, Recombinant 6xHis-tagged human GRP78 protein, biotinylated, saturated with 10 μM celastrol (human, UniProt P11021 19-654, biotin (EZ-Link Sulfo-NHS-Biotin); celastrol covalently bound to Cys41 (mapped on recombinant mouse GRP78)); experiment: SPR; as a1, but the GRP78 chip was saturated with 10 μM celastrol before the peptide; peptide 1.56 to 100 μM; steady-state analysis, 1:1 model; n = 4; conditions: both partners purified
T2 construct: 78 kDa glucose-regulated protein (GRP78), human, recombinant from Abcam; Same protein as m2, after saturation with celastrol; The covalent site Cys41 was mapped by LC-MS/MS on mouse GRP78 made in E. coli, not on the human protein on the chip; also called celastrol–GRP78 conjugate; GRP78-coated Sensor Chip saturated by celastrol; source: bought: Abcam; saturated on the chip with 10 μM celastrol
T2 sequence (P11021 19-654): as above

B1: synthetic GRP78-targeting peptide WDLAWMFRLPVG (peptide)
peptide: WDLAWMFRLPVG
notes: synthetic GRP78-targeting peptide, as described in Arap et al., 2004; That it is not a natural stretch is surmised; also called synthetic peptide; source: synthetic peptide (GL Biochem Ltd, Shanghai)
For B1, the Kd [1] was 17.7 nM and the Kd [2] was 2230 nM.
